Measured values from paper PMC4283936.

B1: PPE19 (dsDNA)
DNA 1: CCGTTCTCCGGACAATCACGGCCCGACC
DNA 2: GGTCGGGCCGTGATTGTCCGGAGAACGG
B2: Rv1517 (dsDNA)
DNA 1: CATTTTTCAGCAATTTCTCAGTAACGCT
DNA 2: AGCGTTACTGAGAAATTGCTGAAAAATG
B3: wbbL2 (dsDNA)
DNA 1: TGGATCGCTGCCGATACACCGCCGATTT
DNA 2: AAATCGGCGGTGTATCGGCAGCGATCCA
B4: devR -116 (dsDNA)
DNA 1: CAGCTGTTCGTCGCGGACTCACACTCCGCGCAC
DNA 2: GTGCGCGGAGTGTGAGTCCGCGACGAACAGCTG
B5: devR -146 (dsDNA)
DNA 1: CGTCATCTGGCCGCCAACGCAAAGCCGGGTCA
DNA 2: TGACCCGGCTTTGCGTTGGCGGCCAGATGACG
B6: devR -155 (dsDNA)
DNA 1: GTGCGTGCCGTCATCTGGCCGCCAACGCAA
DNA 2: TTGCGTTGGCGGCCAGATGACGGCACGCAC
B7: Rv3143 (dsDNA)
DNA 1: AACCGCACAGCCCTCTAACCACTGCTCG
DNA 2: CGAGCAGTGGTTAGAGGGCTGTGCGGTT
B8: nuoA -63 (dsDNA)
DNA 1: GTCACGGCAGCCCGGTCACCGCCCGGCC
DNA 2: GGCCGGGCGGTGACCGGGCTGCCGTGAC
B9: nuoA -52 (dsDNA)
DNA 1: CCGGTCACCGCCCGGCCGCCGCGCTGGC
DNA 2: GCCAGCGCGGCGGCCGGGCGGTGACCGG
B10: lipF -214 (dsDNA)
DNA 1: GGGCTCCCATCGAGATCACCGAAAGCGG
DNA 2: CCGCTTTCGGTGATCTCGATGGGAGCCC
B11: Rv3134c (dsDNA)
DNA 1: GCCATTTCTGGGACTTTGCTGTGAAAAGCTG
DNA 2: CAGCTTTTCACAGCAAAGTCCCAGAAATGGC
B12: espA -246 (dsDNA)
DNA 1: CTTGGGATCGCGCCGCCTACACGGCGGTTGGC
DNA 2: GCCAACCGCCGTGTAGGCGGCGCGATCCCAAG
B13: fadD9 (dsDNA)
DNA 1: CATCTCACAGCCGATCAGCAGCAGGCTT
DNA 2: AAGCCTGCTGCTGATCGGCTGTGAGATG
B14: WB6 D5 (dsDNA)
DNA 1: AGATACACAGCTGATTAACAGGATCTA
DNA 2: TAGATCCTGTTAATCAGCTGTGTATCT
B15: WB6 D1 (dsDNA)
DNA 1: ATACACAGCTGATTAACAGGATCTATGCC
DNA 2: GGCATAGATCCTGTTAATCAGCTGTGTAT
B16: RD6m23 (dsDNA)
DNA 1: AGTACCTCACAGCAATTTCACAGCTTTCAT
DNA 2: ATGAAAGCTGTGAAATTGCTGTGAGGTACT
B17: RD25 (dominant SELEX sequence) (dsDNA)
DNA 1: CTGGAGCATATGGTCCAGTTAGTACCTCACAGCACTTTCAGAGCTTTCATATGCCTGCACC
DNA 2: GGTGCAGGCATATGAAAGCTCTGAAAGTGCTGTGAGGTACTAACTGGACCATATGCTCCAG
B18: RD6m1 (dsDNA)
DNA 1: AGTACCGGCGCTGACTTTCACAGCTTTCAT
DNA 2: ATGAAAGCTGTGAAAGTCAGCGCCGGTACT

The binders below were run against T1, PhoP (Mycobacterium tuberculosis, UniProt P71814 1-247) (assay: ITC).
B1: no binding.
B2: no binding.
B3: no binding.
B4: no binding.
B5: no binding.
B6: no binding.
B7: no binding.
B8: no binding.
B9: no binding.
B10: no binding.
For B11, the Kd was 61.7 ± 5.3 nM.
B12: no binding.
Work on B13 yielded a Kd of 82 ± 4 nM.

These binders were tested against T1, PhoP (assay: competition).
B14: binds.
B15: binds.

Molecular target: T1, PhoP
Experiment: ITC
Remark: another data set of the same source
B16: binds.

The binders below were run against His-PhoP (Mycobacterium tuberculosis, UniProt P71814 1-247) (assay: SELEX).
B17: binds.

Molecular target: T1, PhoP
Experiment: ITC
Remark: another data set of the same source
In the case of B18, the binding signal is reported as ~40 fold lower affinity than RD6.
